This is an account of results in patent US20240424062A1 (MEDERIS DIABETES, published 2024).

Holding throughout (assay): cell-based or functional assay
The target of test [1] is glucagon receptor (human, cloned into CHO cells) (human, UniProt P47871 26-477).
Test [2] deals with GLP-1 receptor (human, cloned into CHO cells) (human, UniProt P43220 24-463).
Test [3] addresses T1, GLP-1 receptor (murine cell line) (murine, UniProt O35659 22-463).
T1 sequence (looked up): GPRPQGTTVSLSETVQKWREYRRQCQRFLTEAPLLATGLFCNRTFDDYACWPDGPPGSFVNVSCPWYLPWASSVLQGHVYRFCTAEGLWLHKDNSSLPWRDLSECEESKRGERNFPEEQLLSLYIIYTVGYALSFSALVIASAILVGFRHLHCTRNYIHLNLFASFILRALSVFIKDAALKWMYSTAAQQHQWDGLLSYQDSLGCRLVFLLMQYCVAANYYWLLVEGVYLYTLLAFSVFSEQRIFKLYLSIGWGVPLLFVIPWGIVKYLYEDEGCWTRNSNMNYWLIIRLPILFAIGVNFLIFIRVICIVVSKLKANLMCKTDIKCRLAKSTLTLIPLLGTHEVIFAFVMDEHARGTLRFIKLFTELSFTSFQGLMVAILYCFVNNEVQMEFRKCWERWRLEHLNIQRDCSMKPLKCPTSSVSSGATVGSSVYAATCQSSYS

Sequence of glucagon receptor (human, cloned into CHO cells) (P47871 26-477): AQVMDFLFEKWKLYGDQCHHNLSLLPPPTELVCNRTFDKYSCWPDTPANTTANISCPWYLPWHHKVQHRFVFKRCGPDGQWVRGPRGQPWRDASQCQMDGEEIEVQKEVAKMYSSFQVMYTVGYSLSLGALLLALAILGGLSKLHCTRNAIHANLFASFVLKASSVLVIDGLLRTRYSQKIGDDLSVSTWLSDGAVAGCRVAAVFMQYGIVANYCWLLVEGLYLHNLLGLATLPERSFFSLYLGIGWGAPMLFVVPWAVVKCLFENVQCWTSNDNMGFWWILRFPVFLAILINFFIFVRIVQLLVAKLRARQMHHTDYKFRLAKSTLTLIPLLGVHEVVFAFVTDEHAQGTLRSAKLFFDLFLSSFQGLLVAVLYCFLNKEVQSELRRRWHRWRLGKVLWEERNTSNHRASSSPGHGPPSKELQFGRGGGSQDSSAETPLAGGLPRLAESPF

B1: EU-A992 (peptide)
peptide: HXQGTFTSDYSKYLDXQAAXEFIXWLLQT
modifications: not fully specified; Aib at 2; Glu*16 and Lys*20 cyclized through their side chains to a lactam; Lys(N-omega(1-octyl beta-D-glucuronyl)) at 24; C-terminal amide (NH2)
With B1, the figures for the “EC50 cAMP (DiscoveRx)” value in test [1] and in test [2] were 0.019 nM and 0.009 nM, respectively.

B2: EU-A391 (peptide)
peptide: HXQGTXTSDYSKYLDXX
modifications: not fully specified; 1-dodecyl alkyl glycoside surfactant on a linker residue (position not given)
In the case of B2, in test [3], the “EC50, cAMP stimulation in cells (Cerep)” value turned out to be 420 nM.
